Experimental data published in patent publication US20110070246A1 (F HOFFMANN LAROCHE, published 2011).
Values belong to the binder of their own block, whether it stands above or below them.

What was measured:
[1] = target: Short1 (huCDCP1_SH1_ECD aa1-216)_SBP (human) (UniProt Q9H5V8); test: ELISA, SBP-CDCP1-Short1 captured on a streptavidin plate, antibody 0.1 ug in 50 ul, goat anti-mouse IgG-HRP, absorbance 370 nm/492 nm; the same antibody on Medium coating: 0,0420
[2] = target: Short5 (hu CDCP1_SH5_ECD (aa 1-361)_SBP) (human) (UniProt Q9H5V8); test: ELISA, SBP-CDCP1-Short5 captured on a streptavidin plate, antibody 0.1 ug in 50 ul, goat anti-mouse IgG-HRP, absorbance 370 nm/492 nm; the same antibody on Medium coating: 0,0420
[3] = target: T1, Soluble extracellular domain (ECD) of human CDCP1 (human, UniProt Q9H5V8 30-663); test: Biacore SPR, immobilized hCDCP1-ECD
T1 construct: also called CDCP1-ECD; hCDCP1-ECD
T1 sequence: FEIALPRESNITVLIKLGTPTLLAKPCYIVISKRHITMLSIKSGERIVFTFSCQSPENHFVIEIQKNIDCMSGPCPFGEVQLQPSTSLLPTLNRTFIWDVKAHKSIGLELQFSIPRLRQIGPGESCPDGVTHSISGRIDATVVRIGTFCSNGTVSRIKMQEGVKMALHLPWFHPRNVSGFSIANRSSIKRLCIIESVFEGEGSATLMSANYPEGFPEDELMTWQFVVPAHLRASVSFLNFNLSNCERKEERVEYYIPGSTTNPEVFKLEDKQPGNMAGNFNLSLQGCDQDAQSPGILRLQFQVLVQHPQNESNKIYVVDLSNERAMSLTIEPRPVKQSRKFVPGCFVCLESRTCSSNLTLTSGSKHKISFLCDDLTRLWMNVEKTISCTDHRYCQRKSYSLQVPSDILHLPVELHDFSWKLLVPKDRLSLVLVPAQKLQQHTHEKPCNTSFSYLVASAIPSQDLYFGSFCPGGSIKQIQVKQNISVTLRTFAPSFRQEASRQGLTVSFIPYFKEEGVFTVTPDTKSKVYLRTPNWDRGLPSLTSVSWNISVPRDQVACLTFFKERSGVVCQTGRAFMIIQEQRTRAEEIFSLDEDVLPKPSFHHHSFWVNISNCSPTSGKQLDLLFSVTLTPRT

[4] = target: Short1 (huCDCP1_SH1_ECD aa1-216)_SBP (human) (UniProt Q9H5V8); test: ELISA, SBP-CDCP1-Short1 captured on a streptavidin plate, antibody 0.1 ug in 50 ul, goat anti-mouse IgG-HRP, absorbance 370 nm/492 nm; the same antibody on Medium coating: 0,2330
[5] = target: Short5 (hu CDCP1_SH5_ECD (aa 1-361)_SBP) (human) (UniProt Q9H5V8); test: ELISA, SBP-CDCP1-Short5 captured on a streptavidin plate, antibody 0.1 ug in 50 ul, goat anti-mouse IgG-HRP, absorbance 370 nm/492 nm; the same antibody on Medium coating: 0,2330

Absorption [1]: 0.787
Absorption [2]: 1.04
Kd [3]: 0.52 nM
koff [3]: 0.00052 s⁻¹
kon [3]: 990000 M⁻¹ s⁻¹
B1: CUB4 antibody (Deposition No. DSM ACC2551), murine (antibody, V domains shown)
VH: EVQLVESGGDLVKPGGSLKLSCAASGFTFNSYGMSWVRQTPDKRLEWVATISSGGSYTYYPDSVKGRFTISRDNAKNTLYLQMSSLKSEDTAMYYCARHPDYDGVWFAYWGQGTLVTVSA
VL: QIVLTQSPAIMSASPGEKVTMTCSVSSSVFYVHWYQQKSGTSPKRWIYDTSKLASGVPARFSGSGSGTSYSLTISSMEAEDAATYYCQQWNSNPPTFGGGTKLEIK
notes: Deposited murine monoclonal antibody; also called Mab CUB4; murine CUB4

Absorption [4]: 1.3
Absorption [5]: 1.49
Kd [3]: 0.47 nM
koff [3]: 0.00022 s⁻¹
kon [3]: 460000 M⁻¹ s⁻¹
B2: Mab CDCP1-015 (antibody, V domains shown)
VH: QVHLKQSGPGLVQPSQSLSITCTVSGFSLTNFGLHWVRQSPGKGLEWLGVIWSGGVTDYNAAFISRLSISKDNSKSQVFFKMNSLQPNDTAIYYCARNYDHDYSMDYWGQGISVSVSS
VL: DVVLTQTPLSLPVIIGDQASISCKSTKSLLNSAGFTYLGWYLQKPGQSPQLLIYLVSNRFSGVPDRFSGSGSGTDFTLKISRVEAEDLGVYFCFQSSYLPLTFGSGTKLEIK
notes: also called CDCP1-0015; Murine CDCP1-015
